Measurements published in US20180273635A1 (Zymeworks, published 2018).
Residue numbers refer to the chain shown, from its start. Where two headings read alike, the source gives them in different places. One block for each binder: values may come before it.

Tests used:
[1] = target: T1, Recombinant human HER2 (human, UniProt P04626 23-652); assay: SPR, pre-SEC; ratio to WT v10013
T1 construct: extracellular domain; analyte of the SPR assays; also called HER2 ECD; ECD2 of HER2
Procedure: (§1) The affinity towards HER2 ECD of the samples was measured by SPR on a Biacore T200 as follows. Between 2000 and 4000 RU of anti-human Fc injected at concentration between 5 and 10 μg/ml was immobilized on a CM5 chip using standard amine coupling. Antigen-binding constructs were captured on the anti-human Fc (injected at concentration at 0.51 microg/mL in PBST, 1 min at 10 microl/min) at response levels ranging from 120-270 RU. […] HER2 dilutions were analyzed in duplicates. Sensograms were fit globally to a 1: 1 Langmuir binding model, using the software provided with the Biacore T200. All experiments were conducted at 25° C.
(§2) The affinity of antigen-binding constructs in OA format was determined by SPR following protein A purification. […] Antigen-binding constructs in FSA format were purified by protein A affinity and SEC prior to assessment of affinity by SPR.

[2] = target: T1, Recombinant human HER2; assay: SPR, post-SEC; ratio to WT v10013
Procedure: as §1, §2

[3] = target: T1, Recombinant human HER2; assay: SPR, variant captured on anti-human Fc, HER2 flowed, 25 C, pre-SEC
Procedure: as §1

[4] = target: T1, Recombinant human HER2; assay: SPR, variant captured on anti-human Fc, HER2 flowed, 25 C, post-SEC
Procedure: as §1, §2

[5] = target: T2, Recombinant human HER2 (human, UniProt P04626 23-652); assay: SPR, 25 C; Ka ratio to WT v10013;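 note: constructs captured via anti-human Fc on CM5 chip, HER2 ECD as analyte in duplicate dilutions, sensorgrams globally fit to 1:1 Langmuir model on Biacore T200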
T2 construct: extracellular domain; Analyte of the SPR assays; also called HER2 ECD; ECD2 of HER2
Procedure: as §1

[6] = target: T2, Recombinant human HER2; assay: calculated from the SPR Ka ratio to WT v10013;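 note: SPR at 25 °C with constructs captured on an anti-human Fc chip and HER2 extracellular domain as analyte, kinetics fitted to a 1:1 Langmuir model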
Procedure: as §1

[7] = target: T2, Recombinant human HER2; assay: SPR at 25 C of the OA variant, equilibrium association constant
Procedure: as §1

[8] = target: T2, Recombinant human HER2; assay: as above; remark: listed apart in the source
Procedure: as §1

[9] = target: T2, Recombinant human HER2; assay: SPR at 25 C of the OA variant, logarithm of the association constant
Procedure: as §1

[10] = target: T2, Recombinant human HER2; assay: as above; remark: listed apart in the source
Procedure: as §1

[11] = target: T2, Recombinant human HER2; assay: SPR, Biacore T200, 25 C; variant captured on anti-human Fc, HER2 flowed;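 note: HER2 extracellular domain analyte run as duplicate dilutions over amine-coupled anti-Fc on a CM5 chip, rates from global sensorgram fitting with a 1:1 Langmuir model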
Procedure: as §1

[12] = target: T3, HER2 expressed on the surface of cells (human, UniProt P04626 23-1255); assay: cell-based or functional assay
[13] = target: T3, HER2 expressed on the surface of cells; assay: cell-based or functional assay; remark: listed apart in the source
[14] = target: T3, HER2 expressed on the surface of cells; assay: cell-based or functional assay; remark: listed apart in the source
[15] = target: T3, HER2 expressed on the surface of cells; assay: cell-based or functional assay; remark: listed apart in the source
[16] = target: T3, HER2 expressed on the surface of cells; assay: cell-based or functional assay; remark: listed apart in the source
[17] = target: T3, HER2 expressed on the surface of cells; assay: flow cytometry on BT474 cells, n=1
Procedure: (§3) Binding of the test antigen-binding constructs to the surface of HER2+ cells was determined by flow cytometry. Cells were washed with PBS and resuspended in DMEM at 1×10⁵ cells/100 μl. 100 μl cell suspension was added into each microcentrifuge tube, followed by 10 μl/tube of the antigen-binding constructs. The tubes were incubated for 2 hr at 4° C. on a rotator. The microcentrifuge tubes were centrifuged for 2 min 2000 RPM at room temperature and the cell pellets washed with 500 μl media. Each cell pellet was resuspended in 100 μl of fluorochrome-labelled secondary antibody diluted in media to 2 μg/sample. The samples were then incubated for lhr at 4° C. on a rotator. After incubation, the cells were centrifuged for 2 min at 2000 rpm and washed in media. The cells were resuspended in 500 μl media, filtered, transferred to a tube containing 5 μl propidium iodide (PI) and analyzed on a BD LSR II flow cytometer according to the manufacturer's instructions. The B50 of the tested antigen-binding constructs was assessed by FACS with data analysis and curve fitting performed in GraphPad Prism. The experiment was carried out once (n=1) in SKBr3 cells, and twice (n=2) in SKOV3, MCF7, and BT-474 cells.
(§4) The experiment was performed once (n=1) in each cell line.

[18] = target: T3, HER2 expressed on the surface of cells; assay: flow cytometry on SKBR3 cells, n=1
Procedure: as §3, §4

[19] = target: T3, HER2 expressed on the surface of cells; assay: flow cytometry on MCF7 cells (low HER2), n=1
Procedure: as §3, §4

[20] = target: T3, HER2 expressed on the surface of cells; assay: flow cytometry on BT474 cells, n=1; B50 = concentration at 50% of Bmax
Procedure: as §3, §4

[21] = target: T3, HER2 expressed on the surface of cells; assay: flow cytometry on SKBR3 cells, n=1; B50 = concentration at 50% of Bmax
Procedure: as §3, §4

[22] = target: T3, HER2 expressed on the surface of cells; assay: flow cytometry on MCF7 cells (low HER2), n=1; B50 = concentration at 50% of Bmax
Procedure: as §3, §4

- Ka, mut/Ka, WT [1]: 7.9
- Ka, mut/Ka, WT [2]: 8
- Kd [3]: 2.5 nM
- Kd [4]: 2.6 nM
B1: variant 10014 (antibody)
heavy: EVQLVESGGGLVQPGGSLRLSCAASGFTFADYTMDWVRQAPGKGLEWVADVNPNSGGSIYNQRFKGRFTLSVDRSKNTLYLQMNSLRAEDTAVYYCARNLGPSFYFDYWGQGTLVTVSSASTKGPSVFPLAPSSKSTSGGTAALGCLVKDYFPEPVTVSWNSGALTSGVHTFPAVLQSSGLYSLSSVVTVPSSSLGTQTYICNVNHKPSNTKVDKKVEPKSCDKTHTCPPCPAPELLGGPSVFLFPPKPKDTLMISRTPEVTCVVVDVSHEDPEVKFNWYVDGVEVHNAKTKPREEQYNSTYRVVSVLTVLHQDWLNGKEYKCKVSNKALPAPIEKTISKAKGQPREPQVYVYPPSRDELTKNQVSLTCLVKGFYPSDIAVEWESNGQPENNYKTTPPVLDSDGSFALVSKLTVDKSRWQQGNVFSCSVMHEALHNHYTQKSLSLSPG
light: not shown
Fc: not shown
notes: OA format; combines the mutations of 12610 and 12611; also called v10014

- Ka, mut/Ka, WT [5]: ~77 fold
- ΔΔG [6]: -2.6 kcal/mol
- Ka [7]: 4.7e+09 M⁻¹
- Ka [8]: 4.7e+09 M⁻¹
- Log Ka [9]: 9.7
- Log Ka [10]: 9.7
- Kd [11]: ~0.21 nM
- koff [11]: ~1.6e-05 s⁻¹
- kon [11]: 73000 M⁻¹ s⁻¹
B2: Variant 14055 (antibody, human IgG1, kappa)
heavy: B1 heavy with A30Q, K76W, S103W
light: not shown
chain: not shown
notes: OA (one-armed) format; clones 8784, 7919, 4372; also called v14055

- Ka [7]: 4.7e+08 M⁻¹
- Ka [8]: 4.7e+08 M⁻¹
- Log Ka [9]: 8.7
- Log Ka [10]: 8.7
B3: Variant 10014 (antibody)
heavy: B1 heavy
light: not shown
Fc: not shown
notes: Fc substitutions are in EU numbering; also called v10014

- Ka, mut/Ka, WT [5]: ~67 fold
- ΔΔG [6]: -2.5 kcal/mol
- Ka [7]: 4e+09 M⁻¹
- Ka [8]: 4e+09 M⁻¹
- Log Ka [9]: 9.6
- Log Ka [10]: 9.6
- Kd [11]: ~0.25 nM
- koff [11]: ~2.1e-05 s⁻¹
- kon [11]: 85000 M⁻¹ s⁻¹
B4: Variant 14024 (antibody, human IgG1, kappa)
heavy: B1 heavy with A30T, K76W
light: not shown
chain: not shown
notes: OA (one-armed) format; clones 7844, 7919, 4372; also called v14024

- Ka, mut/Ka, WT [5]: ~102 fold
- ΔΔG [6]: -2.7 kcal/mol
- Ka [7]: 5.3e+09 M⁻¹
- Ka [8]: 5.3e+09 M⁻¹
- Log Ka [9]: 9.7
- Log Ka [10]: 9.7
- Kd [11]: ~0.19 nM
- koff [11]: ~1.4e-05 s⁻¹
- kon [11]: 73000 M⁻¹ s⁻¹
B5: Variant 14043 (antibody, human IgG1, kappa)
heavy: B1 heavy with A30Q, K76W
light: not shown
chain: not shown
notes: OA (one-armed) format; clones 8775, 7919, 4372; also called v14043

- Ka, mut/Ka, WT [5]: 21 fold
- ΔΔG [6]: -1.8 kcal/mol
- Ka [7]: 1.3e+09 M⁻¹
- Ka [8]: 1.3e+09 M⁻¹
- Log Ka [9]: 9.1
- Log Ka [10]: 9.1
- Kd [11]: 0.79 nM
- koff [11]: 3.9e-05 s⁻¹
- kon [11]: 49000 M⁻¹ s⁻¹
B6: Variant 14032 (antibody, human IgG1, kappa)
heavy: B1 heavy with A30Q, S103W
light: not shown
chain: not shown
notes: OA (one-armed) format; clones 8780, 1811, 4372; also called v14032

- Ka, mut/Ka, WT [5]: ~41 fold
- ΔΔG [6]: -2.2 kcal/mol
- Ka [7]: 2.5e+09 M⁻¹
- Ka [8]: 2.5e+09 M⁻¹
- Log Ka [9]: 9.4
- Log Ka [10]: 9.4
- Kd [11]: ~0.4 nM
- koff [11]: ~2.6e-05 s⁻¹
- kon [11]: 65000 M⁻¹ s⁻¹
B7: Variant 14025 (antibody, human IgG1, kappa)
heavy: B1 heavy with A30Q, K76W
light: not shown
chain: not shown
notes: OA (one-armed) format; clones 8775, 1811, 4372; also called v14025

- Ka, mut/Ka, WT [5]: 12 fold
- ΔΔG [6]: -1.5 kcal/mol
- Ka [7]: 6.2e+08 M⁻¹
- Ka [8]: 6.2e+08 M⁻¹
- Log Ka [9]: 8.8
- Log Ka [10]: 8.8
- Kd [11]: 1.6 nM
- koff [11]: 7.4e-05 s⁻¹
- kon [11]: 46000 M⁻¹ s⁻¹
B8: Variant 14050 (antibody, human IgG1, kappa)
heavy: B1 heavy with A30Q, S103W
light: not shown
chain: not shown
notes: OA (one-armed) format; clones 8780, 7919, 4372; also called v14050

- growth inhibition IC50 (potency), SKBR3 cells [12]: 0.17 nM
- growth inhibition span ratio to WT, SKBR3 cells [12]: 1.6 fold
- growth inhibition IC50 (potency), BT474 cells [13]: 0.55 nM
- growth inhibition span ratio to WT, BT474 cells [13]: 2.6 fold
- growth inhibition IC50 (potency), BT474 cells + EGF [14]: 1.7 nM
- growth inhibition span ratio to WT, BT474 cells + EGF [14]: 2 fold
- growth inhibition IC50 (potency), NCI-N87 cells, 5 days [15]: 3.5 nM
- increase in efficacy with respect to the WT, NCI-N87 cells [15]: 3.2 fold
- increase in potency with respect to the WT, NCI-N87 cells [15]: 2.6 fold
- Bmax [17]: 22000 MFI
- Bmax [18]: 33000 MFI
- Bmax [19]: 640 MFI
- B50 [20]: 4.1 nM
- B50 [21]: 21 nM
- B50 [22]: 2.6 nM
B9: Variant 14020 (antibody, name in Kabat numbering, V domains shown)
VH: EVQLVESGGGLVQPGGSLRLSCAASGFTFQDYTMDWVRQAPGKGLEWVGDVNPNSGGSIYNQRFKGRFTFSVDRSKNTLYLQMNSLRAEDTAVYYCARNLGPWFYFDYWGQGTLVTVSS
VL: DIQMTQSPSSLSASVGDRVTITCKASQDVSIGVAWYQQKPGKAPKLLIYSASYRYTGVPSRFSGSGSGTDFTLTISSLQPEDFATYYCQQYYIYPYTFGQGTKVEIKR
notes: also called v14020
- growth inhibition span (percentage of cells killed), SKBR3 cells [12]: 26%
- growth inhibition span (percentage of cells killed), BT474 cells [13]: 27%
- growth inhibition span (percentage of cells killed), BT474 cells + EGF [14]: 37%
- growth inhibition span (percentage of cells killed), NCI-N87 cells [15]: 55%
- growth inhibition span (percentage of cells killed), MDA-MB-175 cells [16]: 80%

- growth inhibition IC50 (potency), SKBR3 cells [12]: 0.32 nM
- growth inhibition span ratio to WT, SKBR3 cells [12]: 1.8 fold
- growth inhibition IC50 (potency), BT474 cells [13]: 0.49 nM
- growth inhibition span ratio to WT, BT474 cells [13]: 3.1 fold
- growth inhibition IC50 (potency), BT474 cells + EGF [14]: 2 nM
- growth inhibition span ratio to WT, BT474 cells + EGF [14]: 2.4 fold
- growth inhibition IC50 (potency), NCI-N87 cells, 5 days [15]: 2 nM
- increase in efficacy with respect to the WT, NCI-N87 cells [15]: 2.6 fold
- increase in potency with respect to the WT, NCI-N87 cells [15]: 4.6 fold
- Bmax [17]: 23000 MFI
- Bmax [18]: 31000 MFI
- Bmax [19]: 610 MFI
- B50 [20]: 2.4 nM
- B50 [21]: 10 nM
- B50 [22]: 1 nM
B10: Variant 14021 (antibody, name in Kabat numbering, V domains shown)
VH: B9 VH with K76W, W103S
VL: B9 VL with Y49W
notes: also called v14021
- growth inhibition span (percentage of cells killed), SKBR3 cells [12]: 31%
- growth inhibition span (percentage of cells killed), BT474 cells [13]: 33%
- growth inhibition span (percentage of cells killed), BT474 cells + EGF [14]: 44%
- growth inhibition span (percentage of cells killed), NCI-N87 cells [15]: 44%
- growth inhibition span (percentage of cells killed), MDA-MB-175 cells [16]: 82%

- growth inhibition IC50 (potency), SKBR3 cells [12]: 0.34 nM
- growth inhibition span ratio to WT, SKBR3 cells [12]: 1.9 fold
- growth inhibition IC50 (potency), BT474 cells [13]: 0.63 nM
- growth inhibition span ratio to WT, BT474 cells [13]: 3.3 fold
- growth inhibition IC50 (potency), BT474 cells + EGF [14]: 1.7 nM
- growth inhibition span ratio to WT, BT474 cells + EGF [14]: 2.5 fold
- growth inhibition IC50 (potency), NCI-N87 cells, 5 days [15]: 2.5 nM
- increase in efficacy with respect to the WT, NCI-N87 cells [15]: 3.1 fold
- increase in potency with respect to the WT, NCI-N87 cells [15]: 3.6 fold
- Bmax [17]: 23000 MFI
- Bmax [18]: 29000 MFI
- Bmax [19]: 590 MFI
- B50 [20]: 2 nM
- B50 [21]: 3.9 nM
- B50 [22]: 0.8 nM
B11: Variant 14023 (antibody, name in Kabat numbering, V domains shown)
VH: B9 VH with K76W
VL: B9 VL with Y49W
notes: also called v14023
- growth inhibition span (percentage of cells killed), SKBR3 cells [12]: 32%
- growth inhibition span (percentage of cells killed), BT474 cells [13]: 35%
- growth inhibition span (percentage of cells killed), BT474 cells + EGF [14]: 45%
- growth inhibition span (percentage of cells killed), NCI-N87 cells [15]: 52%
- growth inhibition span (percentage of cells killed), MDA-MB-175 cells [16]: 84%

- growth inhibition IC50 (potency), SKBR3 cells [12]: 0.41 nM
- growth inhibition span ratio to WT, SKBR3 cells [12]: 1.6 fold
- growth inhibition IC50 (potency), BT474 cells [13]: 0.54 nM
- growth inhibition span ratio to WT, BT474 cells [13]: 2.6 fold
- growth inhibition IC50 (potency), BT474 cells + EGF [14]: 2.8 nM
- growth inhibition span ratio to WT, BT474 cells + EGF [14]: 1.9 fold
- growth inhibition IC50 (potency), NCI-N87 cells, 5 days [15]: 5.2 nM
- increase in efficacy with respect to the WT, NCI-N87 cells [15]: 3.7 fold
- increase in potency with respect to the WT, NCI-N87 cells [15]: 1.8 fold
- Bmax [17]: 23000 MFI
- Bmax [18]: 31000 MFI
- Bmax [19]: 630 MFI
- B50 [20]: 3 nM
- B50 [21]: 9.8 nM
- B50 [22]: 2 nM
B12: Variant 14022 (antibody, name in Kabat numbering, V domains shown)
VH: B9 VH
VL: B9 VL with Y49W
notes: also called v14022
- growth inhibition span (percentage of cells killed), SKBR3 cells [12]: 26%
- growth inhibition span (percentage of cells killed), BT474 cells [13]: 28%
- growth inhibition span (percentage of cells killed), BT474 cells + EGF [14]: 35%
- growth inhibition span (percentage of cells killed), NCI-N87 cells [15]: 63%
- growth inhibition span (percentage of cells killed), MDA-MB-175 cells [16]: 83%
